In the supplement of paper PMC9170038:

System: MS2 coat protein
Assay: apparent KD of MS2 coat protein; designed switch direction (-1 OFF switch, 1 ON switch): -1; higher = weaker reporter binding
Procedure, shortened: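 The buffer was Tris-HCl pH 7.5 with KCl, MgCl2, BSA, DTT, tRNA and Tween-20. In it, SNAP-549-labelled MS2 coat protein was titrated in doubling steps from 0.7 or 1.5 nM to 3 µM over chip-bound RNA switches transcribed by stalled E. coli RNA polymerase on Illumina chips. Apparent KD is the per-design median over clusters of curve fits to normalised fluorescence.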

[1] = Eterna round: R95, input ligand: microRNA oligo, concentration not stated
[2] = input ligand: microRNA oligo, concentration not stated
[3] = Eterna round: R95, input ligand: FMN 200 uM
[4] = Eterna round: R95, input ligand: none

Row | Sequence | apparent KD of MS2 coat protein [1] [nM] | apparent KD of MS2 coat protein (input ligand: FMN 200 uM) [nM] | apparent KD of MS2 coat protein [2] [nM] | apparent KD of MS2 coat protein (input ligand: none) [nM] | apparent KD of MS2 coat protein [3] [nM] | apparent KD of MS2 coat protein [4] [nM]
1 | AAAUCCGCUGAGGAUAUCAUGACUGAGAGGUCAUGAGAAGGCGGUACAUGAGGAUCACCCAUGUCUAUGGGCAA [Ex-6 Malc#28] (puzzle: Exclusion 6) | 386 | – | – | – | – | –
2 | AGUAGAUCAGGAUAUACGUGAAAGGUCAAAGUGUCCAAUAUACAUGAGGAUCACCCAUGUAGAAGGGAUCUACA [Ex2 Design 116: Not so Super Stable 3] (Eterna round: R96, puzzle: Exclusion 2) | – | 168 | 22.1 | 27.4 | – | –
3 | GAAUAACAAGUGAGGAUAUGGAGUUGGGAGCCAGUUCAGAAGGCACAUGAGGAUCACCCAUGUGAACCGCAGCU [Eternabot (L2) Solution 45] (Eterna round: R97, puzzle: Brourd's mod of Exclusion 4) | – | 16.9 | – | 14.5 | – | –
4 | AUUUUGUGAGGAUAUGGUAACGUUUACAUGAGGAUCACCCAUGUUUCAUGGGACUAGAGACUAGAAGGCACUAACG [JR_Ex5_Sub028] (Eterna round: R97, puzzle: Exclusion 5) | – | 251 | – | 279 | – | –
5 | GGGAUGUCAGGAUAUGAUUAGCACGGCGGUAGCCGCGUUACUUAGAAGGGACAUGAGGAUCACCCAUGUACCGA [EX4 B.6] (Eterna round: R97, puzzle: Exclusion 4) | – | 18.6 | – | 16.9 | – | –
6 | UUAAUAUAUGUAGGAUAUGCGUGGCGAAGCUAUGCAGAAGGACAUGAGGAUCACCCAUGUUCCAGCGUCCGCGUACGGAUGCAA [JL Eng1 1.21 mod 11] (Eterna round: R96, puzzle: Exclusion NG 1) | – | 16 | 12.3 | 13.3 | – | –
7 | AUUAAAAUAUAGGAUAUCGAAUAUAUUAUUUAACGAGAAGGAUGAACAUGAGGAUCACCCAUGUGGUAUCAUGG [Mat - Exclusion 6 - JL Mod - D36] (puzzle: Exclusion 6) | 298 | – | – | – | 157 | 402
8 | GCGGAGUAUGUAGGAUAUCGGUCAGUUUCUGAUCGAGAAGGACAUGAGGAUCACCCAUGUAAAUUGCCCGCUUUGUGGGUCCGC [JL ENG1 3.61] (Eterna round: R96, puzzle: Exclusion NG 1) | – | 36.5 | 13.2 | 17.8 | – | –
9 | CCCUCACUUGAGGAUCACCCAAGUCAGGAUAUCUCACCCGUCCUGCAAGACGGGUCACAGAGAAGGGACUAAAA [Araatra] (Eterna round: R97, puzzle: Exclusion 1) | – | 69 | – | 21.9 | – | –
10 | AAAUAUAAGCAAAGAUCCUACAUGAGGAUCACCCAUGUGCUCGUCUUAUAAAGUACUAUCACGAAAGUGAUAGUACA [Sensor 3, v1 - 19] (puzzle: Sensor v3, turn-off variant 1) | 49 | – | – | – | 117 | 215
11 | CUGGUCCGAGGAUAUAUUUAGUGAAACAUGAGGAUCACCCAUGUUAUUAGAUGGAUGUAAAUAGAAGGCGGACUAG [Mat - Exclusion 5 - JL mod - D63] (puzzle: Exclusion 5) | 20.4 | – | – | – | 18.5 | 23.8
12 | UUAGUAUUGCAAGGAUAUGUUUAUGUUUAUUUUCCUCUUACAUGAGGAUCACCCAUGUUUAACUUACAGAAGGUGCUAUGAUUU [JR_ExcNG2_Sub032] (Eterna round: R96, puzzle: Exclusion NG 2) | – | 1120 | 477 | 1030 | – | –
13 | ACCGGUGUUGCGGAUAAGCUUUUCUGCUCGUUUUAUCGCACAUGAGGAUCACCCAUGUCAUCCGUCAGCAUGCAAAC [Usveen] (puzzle: Sensor v3, turn-off variant 2) | 38.8 | – | – | – | 22.6 | 25.1
14 | ACCUCACUUGAGGAUCACCCAAGUCAGGAUAUACUCGUUUGCCGCGCGACGCGGCAUUGUAGAAGGGACGGGCU [Orquisates] (Eterna round: R97, puzzle: Exclusion 1) | – | 32 | – | 18.8 | – | –
15 | GUCCUGGACUAUCACAAGCACAUGAGGAUCACCCAUGUCAUGGGUAGAUUUAUAAAUAAAGAUACUGCUCGUCUUAU [Cac Sensor turn off var1 sub7] (Eterna round: R97, puzzle: Sensor, turn-off variant 1) | – | 197 | – | 252 | – | –
16 | UCGCUGCGAGGAUAUACGUGCGCGCGCUUUCGUUUGCGCGUACAUGAGGAUCACCCAUGUAGAAGGCGCGCUGC [Apr-15 SS2-6] (puzzle: Exclusion 2) | 12.7 | – | – | – | – | –
17 | GUGCCGCGAGGAUAUACAGACGGGUCCAUUACGUGUCUCGGACUUGAGGAUCACCCAAGUAGAAGGCGUUUCAG [salish99_ex2_r4_624] (Eterna round: R97, puzzle: Exclusion 2) | – | 20.7 | – | 38.4 | – | –

Row | Sequence | apparent KD of MS2 coat protein [1] [nM] | apparent KD of MS2 coat protein (input ligand: FMN 200 uM) [nM] | apparent KD of MS2 coat protein [2] [nM] | apparent KD of MS2 coat protein (input ligand: none) [nM] | apparent KD of MS2 coat protein [3] [nM] | apparent KD of MS2 coat protein [4] [nM]
18 | CGGAGCGGCUUAGGAUAUGCUGGAAUAUCCCUGCUCCUCAGAACAUGAGGAUCACCCAUGUACUGGCAGAAGGGAGCUGCAGAG [Inxeedsoxe] (Eterna round: R96, puzzle: Exclusion NG 2) | – | 21.8 | 15.4 | 18.7 | – | –
19 | GUAGGGUCAGGAUAUACGGGCGGGAGGAUGUAUUGUAGUUGGUAGAAGGGACAUGAGGAUCACCCAUGUGAGAA [JR_Exclu4_Sub054] (puzzle: Exclusion 4) | 31 | – | – | – | – | –
20 | UUUUUGUGAGGAUAUCAGUAGUAAAAAAAUAAAAUUACUACUGAGAAGGCACAUGAGGAUCACCCAUGUUUUUU [salish99_ex4_r3_013] (puzzle: Exclusion 4) | 43.3 | – | – | – | – | –
21 | GUAGAGUAAGGAUAUACUGAAUAGGAUAGAAUGGUUAGAAAGUAGAAGGUACAUGAGGAUCACCCAUGUAAUGU [Excluse me!!!! 19 - Jieux - Exclusion 4] (Eterna round: R96, puzzle: Exclusion 4) | – | 20.9 | 18.6 | 24 | – | –
22 | GUCGAGUGAGGAUAUGGUGAGUAGUGCCUGAGCGCUGCUCACCAGAAGGCACAUGAGGAUCACCCAUGUAUAGC [JL-ex4-2.05 denovo] (puzzle: Exclusion 4) | 15.5 | – | – | – | – | –
23 | ACGUAACGAGCUUGAUCCAACAUGAGGAUCACCCAUGUGCUCGUCUUAUAACGUACUGUCACGUUAGUGAUAGUGCG [Sensor v3, turn-off variant 1 (MOD of Eli's v1-13 v.5)] (puzzle: Sensor v3, turn-off variant 1) | 369 | – | – | – | 971 | 1190
24 | AGAAUUGCCCAUGGCCGCAAGCUUUUUGCUUGUCUUACCACAUGAGGAUCACCCAUGUGACAUGGGCUCCUUAUAAU [Anargees] (puzzle: Sensor v3, turn-off variant 2) | 9.32 | – | – | – | 13.9 | 11.8
25 | ACCAUGUAAGGAUAUCUCGUACAAAGACGCAACUCGUCCAGAGAGAAGGUACAUGAGGAUCACCCAUGUAGACA [Eternabot (Original) Solution 39] (Eterna round: R97, puzzle: Exclusion 4) | – | 152 | – | 33.5 | – | –
26 | UGCUACGGAGGAUAUACAUGAGGAUCACCCAUGUGAUAGAUUAUGCCGAGAGGCUAGUGUAGAAGGCCGUAGCU [jl-ex3-4.14 jl mod] (Eterna round: R97, puzzle: Exclusion 3) | – | 683 | – | 189 | – | –
27 | CGUGACUCAGGAUAUGGAUUAUAUCACAUGAGGAUCACCCAUGUCCAGCGAAAGCUGGAGUCAGAAGGGAGUCACG [Fiskers Ex 5 - 48] (puzzle: Exclusion 5) | 70.9 | – | – | – | 34.9 | 85.4
28 | ACGGGUAAGUAAGGAUAUCCAACAGGCUGAAUUCAACCUGAACAUGAGGAUCACCCAUGUGGGUGGGAGAAGGUACUCUCCCGC [Diladiaen] (Eterna round: R96, puzzle: Exclusion NG 2) | – | 86.5 | 65.5 | 93.7 | – | –
29 | UGCGGUUGAGGAUAUACGUAGAAGUAGAUUCAUGUAAAACUACAUGAGGAUCACCCAUGUAGAAGGCAAUCGCU [Mat - Exclusion 2 - JL Mod - D40] (Eterna round: R97, puzzle: Exclusion 2) | – | 193 | – | 21.5 | – | –
30 | UCUAGACAUGAGGAUCACCCAUGUGAGGAUAUGAUGCGAUCGUCGAAAGACGAUAGCAUCAGAAGGCACGUAUG [Fiskers Ex 1 - 14] (puzzle: Exclusion 1) | 54.4 | – | – | – | – | –
31 | GAUUGAGAGCAGGAUAUCUUAGAAAUGUAUGAAAGAGAAGGGCUCACAUGAGGAUCACCCAUGUGGUCCUAGAU [JL Dibiri mod 17] (puzzle: Exclusion 6) | 22.8 | – | – | – | 244 | 27.5
32 | UGUACUAUGCGAGCUGACUUGCGUAGUGCAGCAGGUGAAACAUGAGGAUCACCCAUGUCCUCAUUUGCUCGUCUUAU [SL-sv3-2.02 JL mod] (puzzle: Sensor v3, turn-off variant 2) | 599 | – | – | – | 47.7 | 41.6
33 | GGUCCACAUGAGGAUCACCCAUGUUAGGAUAUCUCCCGCCUCCUCACUGGAGACGGACAGAGAAGGAACAUCAA [Vetibele] (puzzle: Exclusion 1) | 23.7 | – | – | – | – | –
34 | CGCCUCAGCACAUGAGGAUCACCCAUGUACAAAAGUCCCAGGGAGGAUAUCUGCUGGUUGACUAGAGAGAAGGCCCAUACUAAC [Eternabot solution 45] (Eterna round: R96, puzzle: Exclusion NG 3) | – | 42.6 | 36.6 | 45 | – | –
